From the nanobody polyreactivity screen of Harvey et al. (2022)

Assay: yeast display, Sf9 membrane polyspecificity reagent, FACS + sequencing; frameworks hold sequencing errors
In short: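 A nanobody's polyreactivity label depends on the gate it was sorted from. Yeast display cells were stained with 10% biotinylated, detergent-solubilized Sf9 membrane reagent for 1 hour at 4 °C, enriched on streptavidin microbeads and sorted by FACS. The low and high (top ~1%) gates were set on anti-HA fluorescence for expression and streptavidin fluorescence for reagent binding.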

Row | Sequence | polyreactivity (PSR sort gate)
1 | QVQLVESGGCLVQAGGSLRLTCAASGIIFYAYAMGWYRQAPGKEREFVAAINNSGGRTYYADSVKGRFTISRDNAKNTVYLQMHSLKPEDTAVYYCAVYSYYRRTYRREMDYWGQGTQVTVSS | high polyreactivity
2 | QVQLVESGGGLVQAGGSLRLSCAASGSTFYNNAMGWYRQAPGKERELVAAISNVSTYYADSVKGRFTISRDNAKNTVYLQMNSLKPEDTAVYYCAARVLLWYYSWRYYYWGQGTQVTVSS | low polyreactivity
3 | QVQLVESGGGLVQAGGSLRLSCAASGSTFFRYAMGWYRQAPGKEREFVAAISKRGGSTHYADSVKGRFTISRDNAKNTVYLQMNSLKPEDTAVYYCAASSFTSSYNYWGQGTQVTVSS | high polyreactivity
4 | QVQLVESGGGLVQAGGSLRLTCAASGFIFEHYAMGWYRQAPGKERELVARISWRGGSTYYADSVKGRFTISRDNAKNTVYFQMNSLKPEDTAVYYCNAQEVVYFGYYPSDYWGQGTQVTVSS | low polyreactivity
5 | QVQLVESGGGLVQAGGSLRLSCAASGSIFPTYALGWYRQAPGKERELVAAISSIVGGTYYADSVKGRFTISRDNAKNTVYLQMNSLKPEDTAVYYCNKTKFQGYDYWGQGTQVTVSS | low polyreactivity
6 | QVQLVESGGGLVQAGGSLRLSCAASGSIFDHNAMGWYRQAPGKEREFFARITSSGGGTYYADSVKGRFTISRDNAKNTVYLQMNSLKPEDTAVYYCAKTYYRQGARYPTMFYYWGQGTQVTVSS | low polyreactivity
7 | QVQLVESGGGVVQAGGSLRLSCAASGRTFQFNAMGWYRQAPGKERELVATIDDPSGGTYYADSVKGRFTISRDNAKNTVYLQMNSLKPEDTAVYYCAADRWDSRYETYRYDYWGQGTQVTVSS | low polyreactivity
8 | QVQLVESGGGLVQAGGSLRLSCAASGSTFFTNVKGWYRQAPGKERELVAVIRWRGSDTYYADSVKGRFTISRDNAKNTVYLQMKSLKPEDTAFYYCNAKESFYPTTGEQGYSYAYWGQGTQLTVSS | low polyreactivity
